Data on 2 molecules can be found in patent US20020102250A1, “Recombinant S. aureus peptide deformylase” (priority 2000, published 2002).

Data set [1] in a line: Stability of Fe forms of pdf at serial dilutions with or without catalase; pdf assay coupled to Vibrio aminopeptidase. The class given is biochemical. The protocol: A description of the optimized assay conditions is as follows. The final assay solution contained 50 mM Hepes, 10 mM NaCl, pH 7.0, 0.1% K-casein (Sigma Chemical Co.; St. Louis, Mo.), 100 micromolar formyl-Met-Leu-p-nitroanilide (prepared by standard methods and commercially available from Bachem Bioscience, Inc.; Philadelphia, Pa.; Catalog No. L2030), 5 nanograms of pdf protein (iron form) or 100 nanograms of pdf protein (zinc form), and V. proteolytica aminopeptidase.
(A) 25 microliters of inhibitor in 15% dimethyl sulfoxide (DMSO) (maximum) was pipetted into 96 well microtiter plates (Immulon II from Dynex Technologies; Chantilly, Va.).
(B) 100 microliters of bulk assay solution was pipetted next. This solution is described as follows, and required that the reagents be mixed in the order shown below (enough for 100 assays):
(C) The plate was preincubated at room temperature for 10 minutes.
(D) Finally, 25 microliters of 0.6 mM f-Met-Leu-p-nitroanilide (prepared by adding 120 microliters of 20 mM stock in 100% MeOH to 3,880 microliters of assay buffer) was added.
(E) Each plate was examined in a SpectraMax 250 reader (Molecular Devices Corp.; Sunnyvale, Calif.) using an absorbance of 405 nm. Time points were taken every 20 seconds over a 30 minute time course at 25° C. Since oxidation might be an issue, the plate was mixed to begin the reaction, but not prior to subsequent time points. Addition of anti-oxidant reagents is not required, and preferably reducing agents are not added. Each line was checked for linearity over time and the resulting R^2 value was expected to be greater than about 0.98 for assay validity.
Expression of the iron form of S. aureus or E. coli pdf (known to be unstable) in E. coli was monitored after the addition of 1.6 mM FeCl3 in the media (Luria broth). Incubation was allowed to proceed for 1 hour prior to the addition of IPTG (0.4 mM). Induction continued for 3 hours at 37° C. Cells were isolated and extracted in the presence of catalase (10 micrograms/ml). The purpose of the catalase was to act as an oxygen scavenger to prevent the inactivation of the Fe form of the E. coil pdf. The extracts were subjected to Ni-NTA chromatography for the purification of the C-terminally His tagged versions of both the E. coli and S. aureus pdf proteins. The purified proteins (concentrated to at least 1 mg/ml by ultrafiltration using a membrane available from Amicon; Bedford, Mass.) were stored in the presence of 10 micrograms/ml (minimum concentration) catalase. To examine the stability of the Fe forms of the pdf proteins, dilutions of the proteins were made in the presence or absence of catalase, followed by assays of the enzymes (serially diluted) in the presence or absence of catalase (at 100 micrograms/ml). Assays were run using formyl-Met-Leu-p-nitroanilide as substrate, coupled to the Vibrio aminopeptidase.
The results, which depict linear reactions catalyzed by pdf, are shown in FIG. 2 for S. aureus pdf and FIG. 3 for E. coli pdf. […] The rates shown are in mOD/minute, and each line represents a different concentration of the pdf in nanogram amounts as listed in the legend. […] This is consistent with a significant loss of enzyme activity in the absence of catalase only for the E. coli enzyme. See Rajagopalan et al., J. Amer. Chem. Soc., 119:12418-19 (1997).

The conditions of data set [2]: Fe complex, as reported in prior work; cited from earlier work.

B1: E. coli pdf: Iron form of E. coli peptide deformylase, C-terminally His tagged, known to be unstable, used for comparison (protein, UniProt P0A6K3 2-169, looked up)
Peptide deformylase: SVLQVLHIPDERLRKVAKPVEEVNAEIQRIVDDMFETMYAEEGIGLAATQVDIHQRIIVIDVSENRDERLVLINPELLEKSGETGIEEGCLSIPEQRALVPRAEKVKIRALDRDGKPFELEADGLLAICIQHEMDHLVGKLFMDYLSPLKQQRIRQKVEKLDRLKARA
modifications: C-terminal His tag; iron form
In the case of B1, the Vmax in data set [1] (125 ng pdf, with added catalase) was determined as 8.4 mOD/minute; in data set [1] (125 ng pdf, without added catalase) it was 2.4 mOD/minute; in data set [1] (250 ng pdf, with added catalase) it was 19.2 mOD/minute; in data set [1] (250 ng pdf, without added catalase), 3.7 mOD/minute; in data set [1] (500 ng pdf, with added catalase) it was 45.1 mOD/minute; in data set [1] (500 ng pdf, without added catalase), 6.5 mOD/minute. In addition, the Vmax is on record as 133 mOD/minute in data set [1] (1000 ng pdf, with added catalase) and 18.9 mOD/minute in data set [1] (1000 ng pdf, without added catalase). Also, the “pdf activity as a function of dilution, with versus without catalase in the assay solution” value in data set [1] (catalase at 100 micrograms/ml or absent) is “rapidly loses activity”.

B2: Fe complex of pdf: Fe complex of peptide deformylase of the prior art (background, E. coli enzyme context) (protein, UniProt P0A6K3 2-169, looked up)
Peptide deformylase: B1 Peptide deformylase
modifications: iron form
On to B2, for which, in data set [2], the half-life entry is recorded as “around 30 seconds”.
